Measured values: patent US20150315260A1 (Sanofi, published 2015)
Starred links: 1 amine or outer side, 2 acyl side, 3 side chain; linkers in the order of their positions; H or OH if unused. Non-standard residues stand in square brackets, D forms with d. Groups on a side chain read outwards from the residue. No end group written: not given here. *: point of attachment. γGlu = O=C(O)[C@H](CCC(=O)[*:2])N[*:1]; Stearoyl = CCCCCCCCCCCCCCCCCC(=O)*; Palmitoyl = CCCCCCCCCCCCCCCC(=O)*; AEEA = NCCOCCOCC(=O)O; Aib = CC(C)(N)C(=O)O

T1: human GIP receptor (human, UniProt P48546 22-466)
T1 sequence (looked up): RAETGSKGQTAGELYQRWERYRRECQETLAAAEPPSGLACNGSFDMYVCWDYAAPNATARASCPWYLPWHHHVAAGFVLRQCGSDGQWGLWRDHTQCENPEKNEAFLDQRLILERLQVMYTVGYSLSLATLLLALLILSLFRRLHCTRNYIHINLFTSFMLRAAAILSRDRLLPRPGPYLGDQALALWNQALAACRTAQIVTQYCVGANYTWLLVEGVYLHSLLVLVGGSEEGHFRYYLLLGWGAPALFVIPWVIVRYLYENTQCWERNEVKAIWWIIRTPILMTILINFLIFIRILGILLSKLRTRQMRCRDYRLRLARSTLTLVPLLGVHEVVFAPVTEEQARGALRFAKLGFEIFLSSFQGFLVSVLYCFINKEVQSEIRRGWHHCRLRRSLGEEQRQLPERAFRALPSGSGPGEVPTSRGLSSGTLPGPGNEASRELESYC

B1: exendin-4 derivative SEQ ID NO: 7 (peptide)
peptide: H[Aib]QGTFTSDLSKQK([γGlu-γGlu-Palmitoyl])DEQRAKLFIEWL[Aib]A[dA]GPSSGAPPPS-NH2
modifications: N-terminus assumed
SMILES: CCCCCCCCCCCCCCCC(=O)N[C@@H](CCC(=O)N[C@@H](CCC(=O)NCCCC[C@H](NC(=O)[C@H](CCC(N)=O)NC(=O)[C@H](CCCCN)NC(=O)[C@H](CO)NC(=O)[C@H](CC(C)C)NC(=O)[C@H](CC(=O)O)NC(=O)[C@H](CO)NC(=O)[C@@H](NC(=O)[C@H](Cc1ccccc1)NC(=O)[C@@H](NC(=O)CNC(=O)[C@H](CCC(N)=O)NC(=O)C(C)(C)NC(=O)[C@@H](N)Cc1c[nH]cn1)[C@@H](C)O)[C@@H](C)O)C(=O)N[C@@H](CC(=O)O)C(=O)N[C@@H](CCC(=O)O)C(=O)N[C@@H](CCC(N)=O)C(=O)N[C@@H](CCCNC(=N)N)C(=O)N[C@@H](C)C(=O)N[C@@H](CCCCN)C(=O)N[C@@H](CC(C)C)C(=O)N[C@@H](Cc1ccccc1)C(=O)N[C@H](C(=O)N[C@@H](CCC(=O)O)C(=O)N[C@@H](Cc1c[nH]c2ccccc12)C(=O)N[C@@H](CC(C)C)C(=O)NC(C)(C)C(=O)N[C@@H](C)C(=O)N[C@H](C)C(=O)NCC(=O)N1CCC[C@H]1C(=O)N[C@@H](CO)C(=O)N[C@@H](CO)C(=O)NCC(=O)N[C@@H](C)C(=O)N1CCC[C@H]1C(=O)N1CCC[C@H]1C(=O)N1CCC[C@H]1C(=O)N[C@@H](CO)C(N)=O)[C@@H](C)CC)C(=O)O)C(=O)O
B2: exendin-4 derivative SEQ ID NO: 17 (peptide)
peptide: H[Aib]QGTFTSDLSKQK([AEEA-AEEA-γGlu-Stearoyl])DEQRAKLFIEWL[Aib]AGGPSSGAPPPS-NH2
modifications: N-terminus assumed
SMILES: CCCCCCCCCCCCCCCCCC(=O)N[C@@H](CCC(=O)NCCOCCOCC(=O)NCCOCCOCC(=O)NCCCC[C@H](NC(=O)[C@H](CCC(N)=O)NC(=O)[C@H](CCCCN)NC(=O)[C@H](CO)NC(=O)[C@H](CC(C)C)NC(=O)[C@H](CC(=O)O)NC(=O)[C@H](CO)NC(=O)[C@@H](NC(=O)[C@H](Cc1ccccc1)NC(=O)[C@@H](NC(=O)CNC(=O)[C@H](CCC(N)=O)NC(=O)C(C)(C)NC(=O)[C@@H](N)Cc1c[nH]cn1)[C@@H](C)O)[C@@H](C)O)C(=O)N[C@@H](CC(=O)O)C(=O)N[C@@H](CCC(=O)O)C(=O)N[C@@H](CCC(N)=O)C(=O)N[C@@H](CCCNC(=N)N)C(=O)N[C@@H](C)C(=O)N[C@@H](CCCCN)C(=O)N[C@@H](CC(C)C)C(=O)N[C@@H](Cc1ccccc1)C(=O)N[C@H](C(=O)N[C@@H](CCC(=O)O)C(=O)N[C@@H](Cc1c[nH]c2ccccc12)C(=O)N[C@@H](CC(C)C)C(=O)NC(C)(C)C(=O)N[C@@H](C)C(=O)NCC(=O)NCC(=O)N1CCC[C@H]1C(=O)N[C@@H](CO)C(=O)N[C@@H](CO)C(=O)NCC(=O)N[C@@H](C)C(=O)N1CCC[C@H]1C(=O)N1CCC[C@H]1C(=O)N1CCC[C@H]1C(=O)N[C@@H](CO)C(N)=O)[C@@H](C)CC)C(=O)O
B3: exendin-4 derivative SEQ ID NO: 16 (peptide)
peptide: H[Aib]QGTFTSDLSKQK([AEEA-AEEA-γGlu-Palmitoyl])DEQRAKLFIEWL[Aib]AGGPSSGAPPPS-NH2
modifications: N-terminus assumed
SMILES: CCCCCCCCCCCCCCCC(=O)N[C@@H](CCC(=O)NCCOCCOCC(=O)NCCOCCOCC(=O)NCCCC[C@H](NC(=O)[C@H](CCC(N)=O)NC(=O)[C@H](CCCCN)NC(=O)[C@H](CO)NC(=O)[C@H](CC(C)C)NC(=O)[C@H](CC(=O)O)NC(=O)[C@H](CO)NC(=O)[C@@H](NC(=O)[C@H](Cc1ccccc1)NC(=O)[C@@H](NC(=O)CNC(=O)[C@H](CCC(N)=O)NC(=O)C(C)(C)NC(=O)[C@@H](N)Cc1c[nH]cn1)[C@@H](C)O)[C@@H](C)O)C(=O)N[C@@H](CC(=O)O)C(=O)N[C@@H](CCC(=O)O)C(=O)N[C@@H](CCC(N)=O)C(=O)N[C@@H](CCCNC(=N)N)C(=O)N[C@@H](C)C(=O)N[C@@H](CCCCN)C(=O)N[C@@H](CC(C)C)C(=O)N[C@@H](Cc1ccccc1)C(=O)N[C@H](C(=O)N[C@@H](CCC(=O)O)C(=O)N[C@@H](Cc1c[nH]c2ccccc12)C(=O)N[C@@H](CC(C)C)C(=O)NC(C)(C)C(=O)N[C@@H](C)C(=O)NCC(=O)NCC(=O)N1CCC[C@H]1C(=O)N[C@@H](CO)C(=O)N[C@@H](CO)C(=O)NCC(=O)N[C@@H](C)C(=O)N1CCC[C@H]1C(=O)N1CCC[C@H]1C(=O)N1CCC[C@H]1C(=O)N[C@@H](CO)C(N)=O)[C@@H](C)CC)C(=O)O
B4: exendin-4 derivative SEQ ID NO: 18 (peptide)
peptide: H[Aib]QGTFTSDLSKQK([AEEA-AEEA-AEEA-Stearoyl])DEQRAKLFIEWL[Aib]AGGPSSGAPPPS-NH2
modifications: N-terminus assumed
SMILES: CCCCCCCCCCCCCCCCCC(=O)NCCOCCOCC(=O)NCCOCCOCC(=O)NCCOCCOCC(=O)NCCCC[C@H](NC(=O)[C@H](CCC(N)=O)NC(=O)[C@H](CCCCN)NC(=O)[C@H](CO)NC(=O)[C@H](CC(C)C)NC(=O)[C@H](CC(=O)O)NC(=O)[C@H](CO)NC(=O)[C@@H](NC(=O)[C@H](Cc1ccccc1)NC(=O)[C@@H](NC(=O)CNC(=O)[C@H](CCC(N)=O)NC(=O)C(C)(C)NC(=O)[C@@H](N)Cc1c[nH]cn1)[C@@H](C)O)[C@@H](C)O)C(=O)N[C@@H](CC(=O)O)C(=O)N[C@@H](CCC(=O)O)C(=O)N[C@@H](CCC(N)=O)C(=O)N[C@@H](CCCNC(=N)N)C(=O)N[C@@H](C)C(=O)N[C@@H](CCCCN)C(=O)N[C@@H](CC(C)C)C(=O)N[C@@H](Cc1ccccc1)C(=O)N[C@H](C(=O)N[C@@H](CCC(=O)O)C(=O)N[C@@H](Cc1c[nH]c2ccccc12)C(=O)N[C@@H](CC(C)C)C(=O)NC(C)(C)C(=O)N[C@@H](C)C(=O)NCC(=O)NCC(=O)N1CCC[C@H]1C(=O)N[C@@H](CO)C(=O)N[C@@H](CO)C(=O)NCC(=O)N[C@@H](C)C(=O)N1CCC[C@H]1C(=O)N1CCC[C@H]1C(=O)N1CCC[C@H]1C(=O)N[C@@H](CO)C(N)=O)[C@@H](C)CC
B5: exendin-4 derivative SEQ ID NO: 6 (peptide)
peptide: H[Aib]QGTFTSDLSKQK([γGlu-Stearoyl])DEQRAKLFIEWL[Aib]A[dA]GPSSGAPPPS-NH2
modifications: N-terminus assumed
SMILES: CCCCCCCCCCCCCCCCCC(=O)N[C@@H](CCC(=O)NCCCC[C@H](NC(=O)[C@H](CCC(N)=O)NC(=O)[C@H](CCCCN)NC(=O)[C@H](CO)NC(=O)[C@H](CC(C)C)NC(=O)[C@H](CC(=O)O)NC(=O)[C@H](CO)NC(=O)[C@@H](NC(=O)[C@H](Cc1ccccc1)NC(=O)[C@@H](NC(=O)CNC(=O)[C@H](CCC(N)=O)NC(=O)C(C)(C)NC(=O)[C@@H](N)Cc1c[nH]cn1)[C@@H](C)O)[C@@H](C)O)C(=O)N[C@@H](CC(=O)O)C(=O)N[C@@H](CCC(=O)O)C(=O)N[C@@H](CCC(N)=O)C(=O)N[C@@H](CCCNC(=N)N)C(=O)N[C@@H](C)C(=O)N[C@@H](CCCCN)C(=O)N[C@@H](CC(C)C)C(=O)N[C@@H](Cc1ccccc1)C(=O)N[C@H](C(=O)N[C@@H](CCC(=O)O)C(=O)N[C@@H](Cc1c[nH]c2ccccc12)C(=O)N[C@@H](CC(C)C)C(=O)NC(C)(C)C(=O)N[C@@H](C)C(=O)N[C@H](C)C(=O)NCC(=O)N1CCC[C@H]1C(=O)N[C@@H](CO)C(=O)N[C@@H](CO)C(=O)NCC(=O)N[C@@H](C)C(=O)N1CCC[C@H]1C(=O)N1CCC[C@H]1C(=O)N1CCC[C@H]1C(=O)N[C@@H](CO)C(N)=O)[C@@H](C)CC)C(=O)O
B6: exendin-4 derivative SEQ ID NO: 24 (comparison compound, Leu in position 14) (peptide)
peptide: H[Aib]QGTFTSDLSKQLDEQRAKLFIEWL[Aib]AGGPSSGAPPPS-NH2
modifications: N-terminus assumed
SMILES: CC[C@H](C)[C@H](NC(=O)[C@H](Cc1ccccc1)NC(=O)[C@H](CC(C)C)NC(=O)[C@H](CCCCN)NC(=O)[C@H](C)NC(=O)[C@H](CCCNC(=N)N)NC(=O)[C@H](CCC(N)=O)NC(=O)[C@H](CCC(=O)O)NC(=O)[C@H](CC(=O)O)NC(=O)[C@H](CC(C)C)NC(=O)[C@H](CCC(N)=O)NC(=O)[C@H](CCCCN)NC(=O)[C@H](CO)NC(=O)[C@H](CC(C)C)NC(=O)[C@H](CC(=O)O)NC(=O)[C@H](CO)NC(=O)[C@@H](NC(=O)[C@H](Cc1ccccc1)NC(=O)[C@@H](NC(=O)CNC(=O)[C@H](CCC(N)=O)NC(=O)C(C)(C)NC(=O)[C@@H](N)Cc1c[nH]cn1)[C@@H](C)O)[C@@H](C)O)C(=O)N[C@@H](CCC(=O)O)C(=O)N[C@@H](Cc1c[nH]c2ccccc12)C(=O)N[C@@H](CC(C)C)C(=O)NC(C)(C)C(=O)N[C@@H](C)C(=O)NCC(=O)NCC(=O)N1CCC[C@H]1C(=O)N[C@@H](CO)C(=O)N[C@@H](CO)C(=O)NCC(=O)N[C@@H](C)C(=O)N1CCC[C@H]1C(=O)N1CCC[C@H]1C(=O)N1CCC[C@H]1C(=O)N[C@@H](CO)C(N)=O

target: T2, human GLP-1 receptor (human, UniProt P43220 24-463); test: cell-based or functional assay

| Binder | EC50 hGLP-1R (cAMP formation) [nM] |
| --- | --- |
| B1 | 0.0034 |
| B2 | 0.0028 |
| B3 | 0.002 |
| B4 | 0.0083 |
| B5 | 0.0141 |

target: T3, human glucagon receptor (human, UniProt P47871 26-477); test: cell-based or functional assay
T3 sequence (P47871 26-477): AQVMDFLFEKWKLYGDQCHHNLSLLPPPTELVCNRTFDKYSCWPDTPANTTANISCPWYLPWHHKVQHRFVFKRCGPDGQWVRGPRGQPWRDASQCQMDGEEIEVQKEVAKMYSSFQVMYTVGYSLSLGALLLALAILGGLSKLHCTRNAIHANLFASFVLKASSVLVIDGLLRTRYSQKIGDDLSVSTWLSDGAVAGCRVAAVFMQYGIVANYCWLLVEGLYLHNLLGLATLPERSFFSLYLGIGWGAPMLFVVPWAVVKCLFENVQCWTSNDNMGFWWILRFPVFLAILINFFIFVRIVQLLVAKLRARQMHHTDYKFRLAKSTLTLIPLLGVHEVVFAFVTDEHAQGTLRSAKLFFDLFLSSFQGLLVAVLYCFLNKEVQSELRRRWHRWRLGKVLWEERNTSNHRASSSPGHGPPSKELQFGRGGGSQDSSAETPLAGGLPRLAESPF

| Binder | EC50 hGlucagon-R (cAMP formation) [nM] |
| --- | --- |
| B1 | 0.101 |
| B2 | 0.0162 |
| B3 | 0.042 |
| B4 | 0.0086 |
| B5 | 0.136 |

target: T1, human GIP receptor; test: cell-based or functional assay

| Binder | EC50 hGIP-R (cAMP formation) [nM] |
| --- | --- |
| B1 | 7.62 |
| B2 | 0.906 |
| B3 | 1.87 |
| B4 | 2.16 |
| B5 | 2.76 |

target: T2, human GLP-1 receptor; test: cell-based or functional assay; remark: another data set of the same source

| Binder | EC50 hGLP-1R (cAMP formation) [nM] |
| --- | --- |
| B6 | 0.008 |

target: T3, human glucagon receptor; test: cell-based or functional assay; remark: another data set of the same source

| Binder | EC50 hGlucagon-R (cAMP formation) [nM] |
| --- | --- |
| B6 | 3.09 |

target: T1, human GIP receptor; test: cell-based or functional assay; remark: another data set of the same source

| Binder | EC50 hGIP-1 (cAMP formation, GIP receptor) [nM] |
| --- | --- |
| B6 | 114 |
